Assay results reported in PMC7360973.

Tested on: Hsf1 wt (trimer) (human)
Assay: fluorescence polarization
Details: printed as <= 5 nM; 25 C; Hsf1 SEC buffer: 25 mM HEPES/NaOH pH 7.5, 150 mM NaCl, 10% glycerol, 2 mM DTT; FP at 25 C (5 nM DNA titration; 25 nM DNA and 100 nM trimer for dissociation) …

In the case of 3xHSE DNA (Alexa Fluor 488), the Kd is reported as < 5 nM.
